In the nanobody polyreactivity screen of Harvey et al. (2022):

Assay: yeast display, Sf9 membrane polyspecificity reagent, FACS + sequencing; frameworks hold sequencing errors
Outline: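 Sorting gates, low and high (top ~1%), were placed on anti-HA fluorescence to track expression and on streptavidin fluorescence to track reagent binding. A clone's polyreactivity label is taken from the gate it came out of. The reagent was 10% biotinylated, detergent-solubilized Sf9 membrane, applied for 1 hour at 4 °C to galactose-induced yeast display cells.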

Sequence | polyreactivity (PSR sort gate)
QVQLVESGGGLVQAGGILRLSCAASGSIVTDNAMGWYRQAPGKERELVAAITSSGNTNYADSVKGRFTISRDNAKNTVYLQINSLKPEDTAVYYCAADSYYKHWTDWLPVGEDYWGQGTQVTVSS | low polyreactivity
QVQLVESGGGLVQAGGSLRLSCAASGSIFNTYAMGWYRQAPGKEREFVASISRSGGSTRYADSVKGRFTISRDNAKNTVYLQMNSLIPEDTAVYYCAASWLGASGIRYDYWGQGTQVTVSS | high polyreactivity
QGQLVESGGCLVQAGGSLRLSCDASGFIFTSYAMGWYRQAPGQEWELVAVITASGGSTYYADSVKGRFTISRDNAKNTVYLQMNSLKPEDTAVYYCNRYYQSYYGWTGPYGYWGQGTQVTVSS | high polyreactivity
QVQLVESGGGLVQAGGSLRLSCAASGSTFSIYTMGWYRQAPGKERELVAAINTGDGDTYYADSVKGRFTISRDNAKNTFYLQMNSLKPEDTAVYYCAAVYSQLSNLYYYWGQGTQVTVSS | low polyreactivity
QVQLVESGGGLVQAGASLRLSCAASGRTFLRYAMGWYRQAPGKERELVAAISSRGGSTYYADSVKGRFTISRDNAKNTVYLQMNSLIPEDTAVYYCAARGCRSQVPVRVFRYDFWGQGTQVTVSS | high polyreactivity
QVQLVESGGGLVQAGGSLRLSCAASGIYSYVMGWYRQAPGKERELVAAISGTGGRTYYADSVKGRFTISRDNAKNTVYLQMNSLKPEDTAVYYCAARGIYQPKTFDYWGQGTQVTVSS | high polyreactivity
QVQLVESGGGLVQAGGSLRLSCAASGFIFGSNAMGWYRQAPGKERELVAAISRSGGSTYYADSVKGRFTISRDNAKNTVYLQMNSLKPEHTAVYYCASYLYKSRYLPEYDYWGQGTQVTVSS | high polyreactivity
QVQLVESGGGLVQAGGSLRLSCAASGRTFWYNAMGWYRQAPGKERELVAAISSTGGRTYYADSVKGRFTISRDNAKNTVYLQMNSLKPEDTAVYYCAKYPSKSYVPGDYWGQGTQVTVSS | low polyreactivity
QVHLVESGGGLFQAGGSLRLIFAASGLIFYKNAMGWYRQAPGKERELVAISSSGGSTYYADSVKGRFTISRDNAKNSVYLQMHSLKPEDSAVYYCAARSRRYGGGYWGQGTQVTVSS | high polyreactivity
QVQLVESGGGLVQAGGSLRLSCAASGRIFRQNVMGWYRQAPGKERELVAGISRSGSGTRYADSVKGRFTISRDNAKNTVYLQMNSLKPEDTAVYYCNTLVPFSTWRYGYWGQGTQVTVSS | high polyreactivity
QVQLVESGGGLVQAGGSLRLSCAASGSTFGTYAMGWYRQAPGKERELVAAISNSGGSTYYADSVKGRFTISRDNAKNTVYLQMNSLKPEDTAVYYCNTDGLVRNGPFYSWGQGTQVTVSS | low polyreactivity
QVQLVESGGGLVQAGGSLRLSCAASGSTFATYAMGWYRQAPGKERELVAAITSGGSTYYADSVKGRFTISRDNAKNTVYLQMNSLKPEDTAVYYCAARSYGWRRATYYKREEYWGQGTQVTVSS | high polyreactivity
QVQLVESGGGLVQAGGSLRLSCAASGRIFGSYVMGWYRQAPGKVRELVAAISRRGGSTYYADSVKGRFTISRDNAKNTVYLQMNSLKPEDTAVYYCAAEFSPSSNPYDYWGQGTQVTVSS | high polyreactivity
QVQLVESGGGLVQAGGSLRLSCAASGLDYYAMGWYRQAPGKERELVAAIDWSGVSTYYADSVKGRFTISRDNAKNSVYLQMNSLKPEDTAVYYCAALYDGWPRVSYGLGEYGYWGQGTQVTVSS | low polyreactivity
QVQLVESGGGLVQAGGSLRLSCAASGITFGYYAMGWYRPAPGKERELVAAITYSGGSTYYADSVKGRFTISRDNAKNTVYLQMNCLKPEDTAVYDCAAERYVRVWVAGILHYDYWGQGTQVTVSS | low polyreactivity
QVQLVESGGGLVQAGGSLRLSCAASGSTVENNVMGWYRQAPGQERELVATITWGDGSTSYADSVKGRFTISRDNAKNTVYLKMNSLKTEVTAVYYCDAVDRIGYGKNQDHDYWGQGTQVTVSS | low polyreactivity
QVQLVESGGGVVQAGGSLRLSCAASGRIFPYNAMGWYRQAPGKERELVAAISSGGSTTYADSVKGRFTISRDNAKNTVYLHMNSLKPEDTAVYYCAREVYRHYAPVGYDYWGQGTQVTVSS | high polyreactivity
QVQLVESGGGLVQAGGSLRLSCAASGRIFGVNAMGWYRQAPGKERELVAHIRSSGASTYYADSVKGRFTISRDNAKNTVYLQMNSLKPEDTAVYYCARDYFVDGPGYDYWGQGTQVTVSS | low polyreactivity
QVQLVESGGGLVQAGGSLRLSCAASGLIFIVYAMGWYRQAPGKERELVAAISWSGGSTYYADSVKGRFTISRDNAKNTVYLQMNSLKPEDTAVYYCAAESYGVWDYEYWGQGTQVTVSS | high polyreactivity
QVQLVESGGGLVQAGGSLRLSCAASGRIFLFYAMGWYRQGPGKERALVAAINWSGTRTYYADSVKGRFTISRDNAKNSVYLHMNSLKPEDTAVYDCNVDTSVYDFSEYDYWGQGTQVTVSS | high polyreactivity
QVQLVESGGGLVQAGGSLRLSCAASGRIFSANAMGWYRQAPGKERELVATISTGGGRTYYADSVKGRFTISRDNAKNTVYLQMNSLKPVDTAVYYCNATRNYARVRYYYWGQGTQVTVSS | high polyreactivity
QVQLVESGGGLVQAGGSLRLSCAASGITFVFYTMGWYRQAPGKERELVAAIARSGASTYYADSVKGRFTLSRDNAKNTVYLQMNSLKPEDTALYYGAADRGYRFRMDYWGQGTQVTVSS | high polyreactivity

Sequence | polyreactivity (PSR sort gate)
QVQLVESGGGLVQAGGSLRLSCAASGRTFDRNAMGWYRQAPGKERELVAAITSRGGRTYYADSVKGRFTISRDNAKNTVYLQMNSLKPEDTAVYYCAADLFSSRVRSNFDYWGQGTQVTVSS | high polyreactivity
QVQLVESGGGLVQAGGSLRLSCAASGSTYPYYAMGWYRQAPGKERELVAAITSGGSTNYADSVKGRFTISRDNAKNTVYLQMNSLKPEDTAVYYCNADSSGWFPFDYWGQGTQVTVSS | low polyreactivity
QVRLVESGGGLVQAGGSLRLSCAASGSIFQYYVMGWYRQAPGKERELVAAISRNGGRTYYADSVKGRFTISRDNAKNTVYLQMNSLKPEDTAVYYCAADSIPHRDNYWGQGTQVTVSS | high polyreactivity
QVQLVESGGGLVQAGGSLRLSCAASGFIFYYNTMGWYRQAPGKERELVASITWSGDTTYYADSVKGRFTISRDNAKNTVYLQMNSLKPEDTAVYYCAAVHYYPYRRYDYWGQGTQVTVSS | low polyreactivity
QVQLVESAGGLVQAGGRLRLSCAASGRTFTYYAMGWYRQAPGKERELVAAISFSGGRTYYADSVKGRFTISRDYAKNTVYLQMNSLKPEDTAVYYCAAENYYTRYRDRDYWGQGTQVTVSS | high polyreactivity
QVQLVESGGGLVQAGGSLRLSCAASGFIFASYAMGWYRQATGKERELVAAITQSGGITYYADSVKGRFTISRDNAKNTVYLQMNSLKPEDTAVYYCNTPLMKRTTRGRERNYWGQGTQVTVSS | low polyreactivity
QDQLVESGGGLVQAGGSLRLSCAASGRTFYDNVMGWYRQAPGKERELVAAISSGASTNYADSVKGRFTISRDNAKNSVYFQMNSLKPEDSAVYYCATNGGGGWAYEYWGQGTQVTVSS | low polyreactivity
QVQLVESGGGLVQAGGSLRLSCAASGSTFYGYAMGWYRQAPGKERELVAAITRSGGSTYYADSVKGRFTISRDNAKNTVYLQMNSLIPEDTEVYYCNKDGYKGGVGYDYWGQGTQVTVSS | high polyreactivity
QVLLVESGGGLVHAGGSLRVSCASSGFTFKENAMGWYRQAPGKERELVAAISSTGGSTYYADSVKGRFTISRDNAKNTVFLLMNSLKPEDTAVYYCAASTYWYDGDYWGQGTQVTVSS | high polyreactivity
QVHLVESGGGLVQAGCSLRLSSSASGFTFVRNAMGWYRQAPGKERELVAAISKSGGRTYYTDSVKGRFTISRDNAKNSVYLHLNSLIPEDTAVYYCASDPVSDYYGYGYWGQGTQVTVSS | high polyreactivity
QVQLVESGGGLVQAGGSLRLSCAASGRIFLFYTMGWYRQAPGKERELVAGITFSGGSTYYADSVKGRFTISRDNAKNTVYLQMNSLKPEDTAVYYCNARRWWQSYDYWGQGTQVTVSS | high polyreactivity
QVQLVESGGGLVQSGGSLRISCAASGGIFKYNAMGWYTQAPGKERELVAAINYSGGRTYYADSVKGRFTISRDNAKNTVYLQMNSLKPEDTAVFYCNALTRGHTGQPYTYDYWGQGNQVTVSS | high polyreactivity
QVQLVESGGGLVQAGGSLRLSCAASGLIFRRYAMGWYRQAPGKEREFVAAISWSGGSTYYADSVKGRFTISRDNAKNTVYLQMNSLKPEDTAVYYCAARYRFGGIRRYNYWGQGTQVTVSS | high polyreactivity
QVQLVESGGGLVQAGGSLRLISAASGSTFPPYSMGWYSQAPGKEWEVVADITRRGASTYYADSVKVRFTISRDNAKNTVYLQMNSLKPEDTAVYYCAARYYDQYYSGFDYWGQGTQVTVSS | high polyreactivity
QVQLQESGGGLVQAGGSMRLSCAASGYFSNYYSMGLYRQAPGKERELVAGIGTGTSTYYADSVKGRFTISRDNAKNTVYQQMNSLKPEDTAVYYCAAPLDTSSRIFDYWGQGTQVTVSS | low polyreactivity
QVQLVESGGGLVQAGGRLRLSCAASGRTFYTYAMGWYRQAPGKERELVAAITSGGSTYSADSVKGRFTISRDNAKNTVYLQMNSLKPEDTAVYYCAAEFYYWRGFDYWGQGTQVTVSS | low polyreactivity
QVQLVESGGGLVQAGGSLRLSCAASGLIFYYNAMGWYRPAPGKERELVAAISWSGGSTYYADSVKGRFTISRDNAKNTVYLQMNSLKPEDTAVYYCNADYHSVRRDYWGQGTQVTVSS | low polyreactivity
QVQHVESRGGLVQAGGSLRLSCAASGRSFSDYAMGGYRQAAGKERELVASINSGGSTYYADSVKGRFTISRDKAKNTVYLHMNSLKPEDTAVYYCAAGFQLVKGSLSGRAAYYYWGQGTQVTVSS | high polyreactivity
QVQLVDSGGGLVQAGASLRLSCAASGSTLSYYTMGWYRQAPGKERELVAAISWRGGSTYYADSVKGRFTISRDNAKNTVYLQMNSLKPEDTAVYYCATAIRGSPDSSLYYYWGQGTQVTLSS | high polyreactivity
QVQLVESGGGLVQAGGSLRLSCAASGSIFVGNTMGWYRQAPGKERELVAALTWSGGRTYYADSVKGRFTISRDNEKNTVYLQMHSLKPEDTAVYYCNALANYIRYYYWGQGTQVTVSS | high polyreactivity
QVQLVESGGGLVQAGGSLRLSCAASGFTFFGYAMGWYRQAPGKERELVATISDTGGSTYADSVKGRFTISRDNAKNTVYLQMNSLKPEDTAVYYCNARSVFYSMDYWGQGTQVTVSS | low polyreactivity
